Measured values as given in patent publication US20260159575A1.

Biological target: MTBR-tau354 (human) (UniProt P10636)
Test: target engagement in human CSF, ex vivo; multiple dose 3000 mg Q4W, E2814 CSF concentrations 200-400 ng/mL; bound/(free+bound) proxy peptide

B1: antibody E2814 (antibody, human IgG1, kappa, V domains shown)
VH: EVQLLESGGGLVQPGGSLRLSCAASGYTFTTYWITWVRQAPGKGLEWVSDIYPGSSISNYNEKFKSRFTISVDNSKNTLYLQMNSLRAEDTAVYYCAREDGYDAWFAYWGQGTLVTVSS
VL: DIQMTQSPSSLSASVGDRVTITCRSSQSILHSNGNTYLEWYQQKPGKAPKLLISKVSNRFSGVPSRFSGSGSGTDFTLTISSLQPEDFATYYCFQGSHVPFTFGQGTKLEIKR
**Q.** With B1 as the binder, how does the target engagement (E2814-bound MTBR-tau as percent of total free plus bound) read?
**A.** Its target engagement (E2814-bound MTBR-tau as percent of total free plus bound) is 70%.
